Tests used:
Experiment in all cases: cell-based or functional assay
[1] = molecular target: HIV-1 Env of isolate 92BR020 (pseudovirus) (HIV-1)
[2] = molecular target: HIV-1 Env of isolate 94UG103 (pseudovirus) (HIV-1)
[3] = molecular target: HIV-1 Env of isolate JR-CSF (pseudovirus) (HIV-1) (UniProt P20871)
[4] = molecular target: HIV-1 Env of isolate MGRM-C-026 (pseudovirus) (HIV-1)
[5] = molecular target: HIV-1 JR-CSF Env E466A (HIV-1 isolate JR-CSF) (UniProt P20871)
[6] = molecular target: HIV-1 Env of isolate 93IN905 (pseudovirus) (HIV-1)
[7] = molecular target: HIV-1 JR-CSF Env F468A (HIV-1 isolate JR-CSF) (UniProt P20871)

B1: 4869_K15 (PGT-133) (antibody, V domains shown)
VH: QVHLQESGPGLVTPSETLSLTCTVSNGSVSGRFWSWIRQSPGRGLEWIGYFSDTDRSEYNPSLRSRLTLSVDRSKNQLSLRLKSVTAADSATYYCARAQQGKRIYGIVSFGEFFYYYYMDAWGKGTPVTVSS
VL: SLNPLSLAPGATAKIPCGERSRGSRAVQWYQQKPGQAPTLIIYNNQDRPAGVSERFSGNPDVAIGVTATLTISRVEVGDEADYYCHYWDSRSPISWIFGGGTQLTVL
Binder B1 has a Primary Neutralization Index (B cell culture supernatant) [1] of 3.9, a Primary Neutralization Index (B cell culture supernatant) [2] of 1.5 and a Primary Neutralization Index (B cell culture supernatant) [3] of 2.1. For the same binder, the Primary Neutralization Index (B cell culture supernatant) [4] was 104.

B2: PGT-126 (antibody, V domains shown)
VH: QPQLQESGPGLVEASETLSLTCTVSGDSTAACDYFWGWVRQPPGKGLEWIGGLSHCAGYYNTGWTYHNPSLKSRLTISLDTPKNQVFLKLNSVTAADTAIYYCARFDGEVLVYHDWPKPAWVDLWGRGTLVTVSS
VL: QSALTQPPSASGSPGQSISISCTGTSNRFVSWYQQHPGKAPKLVIYGVNKRPSGVPDRFSGSKSGNTASLTVSGLQTDDEAVYYCSSLVGNWDVIFGGGTKLTVL
Binder B2 has a Fold IC50 increase relative to wild-type [5] of 1.4 fold.

B3: 5344_E16 (PGT-135) (antibody, V domains shown)
VH: QLQMQESGPGLVKPSETLSLSCTVSGDSIRGGEWGDKDYHWGWVRHSAGKGLEWIGSIHWRGTTHYKESLRRRVSMSIDTSRNWFSLRLASVTAADTAVYFCARHRHHDVFMLVPIAGWFDVWGPGVQVTVSS
VL: EIVMTQSPDTLSVSPGETVTLSCRASQNINKNLAWYQYKPGQSPRLVIFETYSKIAAFPARFVASGSGTEFTLTINNMQSEDVAVYYCQQYEEWPRTFGQGTKVDIK
For B3, the Primary Neutralization Index (B cell culture supernatant) [6] was 2.3, the Primary Neutralization Index (B cell culture supernatant) [3] was 1.5 and the Primary Neutralization Index (B cell culture supernatant) [4] was 3.6.

B4: PGT-130 (antibody, V domains shown)
VH: QVQLQESGPGLVKPAETLSLTCSVSGESINTGHYYWGWVRQVPGKGLEWIGHIHYTTAVLHNPSLKSRLTIKIYTLRNQITLRLSNVTAADTAVYHCVRSGGDILYYYEWQKPHWFSPWGPGIHVTVSS
VL: QSALTQPPSASGSLGQSVTISCNGTSSDIGGWNFVSWYQQFPGRAPRLIIFEVNKRPSGVPGRFSGSKSGNSASLTVSGLQSDDEGQYFCSSLFGRWDVVFGGGTKLTVL
With B4 the Fold IC50 increase relative to wild-type [7] was 0.4 fold.

From patent US20250320281A1
